The subject of data set [1] is 2G12 (anti-HIV-1 gp120 carbohydrate-binding monoclonal antibody). In words: filter.
Data set [2] shares this test system. Nature of the data set: BLI. As to conditions: N are Man9-derivatized dU (3 sites); 5' A5 spacer [26,33,39]; 1:1 global fit; kon 2.04e4 /M/s, koff 2.53e-4 /s.

The Kd is the free concentration of one partner at which half of the binding sites on the other are occupied at equilibrium, for simple one-to-one binding. A high value points to a looser complex. “CGGGTACGGGAGACCCACAGTGCAACCTACGGATAAAGCACACAGGAGACGACAAG [Clone 2 glycoDNA]” showed a Kd in data set [1] (all T in random region are EdU-Man9 (3 sites), 20 mM Tris pH 7.5, 150 mM NaCl, 4 mM MgSO4, BSA, binding at 37 C also shown in FIG. 11) of 1.7 nM.

The sequence “CGGGTACGGGAGACCCATGGTGCAACCTACGGATAAAGCACACAGGAGACGACAAG [Clone 7 glycoDNA]” gave a dissociation constant Kd in data set [1] (all T in random region are EdU-Man9, moderate binding, Mg2+ buffer) of 12 nM.

Regarding “AAAAACGGGTACGGGAGACCCACGGTGCAACCTACGGATAAAGCACACAGGAGACGACAAG [Clone 1 biotinylated glycoDNA (BLI)]”, the Kd in data set [2] was determined as 12.4 nM.

For the origin of these results see patent US11268099.
